# Values quoted from earlier work in PMC4932920.
# Columns and labels:
# His103 = His103 (UniProt position 104, FKLLSHCLLVT); test: other (histidine H/D exchange)
# His146 [1] = biological target: T1, His146 (UniProt position 147, LAHKYH-----); test: NMR
# His143 [2] = biological target: T2, His143 (UniProt position 144, ANALAHKYH--); test: NMR
# His117 = His117 (UniProt position 118, CVLAHHFGKEF); test: NMR
# His97 [3] = biological target: T3, His97 (UniProt position 98, HCDKLHVDPEN); test: NMR
# His77 [4] = biological target: T4, His77 (UniProt position 78, SDGLAHLDNLK); test: NMR
# His146 [5] = biological target: T1, His146; test: other (H/D exchange of individual histidine residues)
# His143 [6] = biological target: T2, His143; test: as above
# His97 [7] = biological target: T3, His97; test: as above
# His77 [8] = biological target: T4, His77; test: as above
# His89 [9] = biological target: T5, His89 (UniProt position 90, SDLHAHKLRVD); test: NMR
# His112 [10] = biological target: T6, His112 (UniProt position 113, VTLAAHLPAEF); test: NMR
# His72 [11] = biological target: T7, His72 (UniProt position 73, TNAVAHVDDMP); test: NMR
# His20 [12] = biological target: T8, His20 (UniProt position 21, GKVGAHAGEYG); test: NMR
# His50 [13] = biological target: T9, His50 (UniProt position 51, HFDLSHGSAQV); test: NMR
# His89 [14] = biological target: T5, His89; test: other (H/D exchange of individual histidine residues)
# His112 [15] = biological target: T6, His112; test: as above
# His72 [16] = biological target: T7, His72; test: as above
# His20 [17] = biological target: T8, His20; test: as above
# His50 [18] = biological target: T9, His50; test: as above
# [19] = carbonmonoxy (CO-liganded) hemoglobin, R state
substance,measurement,setting,value
"Hemoglobin A (adult human hemoglobin), alpha chain residue titrated (Homo sapiens)",pKa,His103; [19],7.1
same,pKa,"His103; deoxy hemoglobin, T state",7.1
"Hemoglobin A (adult human hemoglobin), beta chain (Homo sapiens)",pKa,His146 [1]; [19],6.42
same,pKa,"His146 [1]; deoxy hemoglobin, T state",7.93
same,pKa,His143 [2]; [19],5.57
same,pKa,"His143 [2]; deoxy hemoglobin, T state",4.70
same,pKa,His117; [19],6.39
same,pKa,"His117; deoxy hemoglobin, T state",6.43
same,pKa,His97 [3]; [19],7.75
same,pKa,"His97 [3]; deoxy hemoglobin, T state",8.01
same,pKa,His77 [4]; [19],7.79
same,pKa,"His77 [4]; deoxy hemoglobin, T state",7.47
same,pKa,His146 [5]; [19],7.0
same,pKa,"His146 [5]; deoxy hemoglobin, T state",8.1
same,pKa,His143 [6]; [19],6.1
same,pKa,"His143 [6]; deoxy hemoglobin, T state",5.6
same,pKa,His97 [7]; [19],6.4
same,pKa,"His97 [7]; deoxy hemoglobin, T state",6.4
same,pKa,His77 [8]; [19],7.8
same,pKa,"His77 [8]; deoxy hemoglobin, T state",7.8
"Hemoglobin A (adult human hemoglobin), alpha chain (Homo sapiens)",pKa,His89 [9]; [19],6.25
same,pKa,"His89 [9]; deoxy hemoglobin, T state",6.80
same,pKa,His112 [10]; [19],7.53
same,pKa,"His112 [10]; deoxy hemoglobin, T state",7.49
same,pKa,His72 [11]; [19],7.27
same,pKa,"His72 [11]; deoxy hemoglobin, T state",7.47
same,pKa,His20 [12]; [19],7.08
same,pKa,"His20 [12]; deoxy hemoglobin, T state",7.02
same,pKa,His50 [13]; [19],6.90
same,pKa,"His50 [13]; deoxy hemoglobin, T state",7.14
same,pKa,His89 [14]; [19],5.6
same,pKa,"His89 [14]; deoxy hemoglobin, T state",7.2
same,pKa,His112 [15]; [19],8.1
same,pKa,"His112 [15]; deoxy hemoglobin, T state",8.1
same,pKa,His72 [16]; [19],7.1
same,pKa,"His72 [16]; deoxy hemoglobin, T state",7.3
same,pKa,His20 [17]; [19],7.0
same,pKa,"His20 [17]; deoxy hemoglobin, T state",7.6
same,pKa,His50 [18]; [19],7.1
same,pKa,"His50 [18]; deoxy hemoglobin, T state",7.2
